# The domain aggregation screens of Martell et al. (2025)
# Test: soluble fraction after stress (log2 fold change); higher = more stays soluble; pooled small domains, quantitative proteomics
# Conditions: stress: 50 degC
# Procedure, shortened: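 Custom libraries of small protein domains were pooled and measured in a high-throughput format, with quantitative proteomics as the read-out. Each library was stressed at 50°C. The value is the log2 fold change in the amount of each protein that stays soluble after stress, used as a measure of aggregation propensity; higher values mean more of the protein stays soluble.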
row,Sequence,soluble fraction (log2)
1,HMPYHSEAWHKVMKSHWLTLSREEAYMHEGRTGASTINIVFQRELGREATQEEIESIYQEKSVLFNSYP,-1.46
2,HMEEQIEVPVQINGKVRSKLTVAPETDEKQIEALALADPKVQQQLEGKRVLKVIVAQKRLVNIVA,-0.0336
3,HMDNQSIVRINDGDGAWRQRLGEHFGHLPRDRKRGEIVLQVDAADWRWLQTQGYAPRFDAALSAQLQTTL,-0.404
4,HMQEISQEEALATVLKDLSLTEADLKDLQITREEDKYKILFSKGQTAYDVLVSAKDGQLLQSKQETI,-0.165
5,HMGDVKLNAIYNFLKEFSALNGFPPSVREIGAKFGIKSTSTVHYYLEKLKQSGVIQQEENKKRAVVIN,-0.369
6,HMYIDNVTIYDVGFNERIVHALERAGVKNLYDLSQMNFYQLQRIRNLGASSLEKVINRIHSYGILLKNES,-1.2
7,HMDEQLAWLYRKINAFSEIDKALILLYLEDKKYDEIAETLGISSVNARVKMNRIKKRLKEMINDR,-2.53
8,HMEFNDLNDDEKAILHIMYNTGEKMTTALAARITNRGRNFASKLLKSLVKKEILEWHGTSKQDRNQYYTLA,-0.0326
9,HMSQVSTKYINVSSAYVRSKPSKDGEIVTSLIKNTDVTVTGENGDWYKIKFNNYEGYIFKELLSDSKLEE,0.15
10,HMGMSQQKQSSTVRIIMQDISDANEGLMKMSQIIDAALAEGISETIVRNAISNLHRGGTIYESQTGTYQW,-0.359
11,HMEDKIEESLEDNISELFAKTKDKYTLINDLYSKGYTVEELSRFSGLPSGEVRLVISLNSKN,0.0392
12,HMHDIPDITDLRPLRHTLGLTLAHAAQQLNTTTATISRLERGQHRNDHLATTYRTWLHTHPT,-0.15
13,HMIISPKKLEYRQRIINALGDRKMSLNELSKAMGYKGITTKLSFTVDDMIKSGVIEKVMVGAYAKLHIP,-1.65
14,HMTTTFGWENLVGEKGIAATDLHPSGWVTVKDQRVFVVSEGTFIEEGKEVEIMNVDGNRIVVREFKN,0.0515
15,HMDNEYDKVYQAALSKLEGYPRSSITTAVIKDVVAQTIKYFEIKNFGYEDTIINQLQSAFTVKSSS,-0.0856
16,HMFRPRIEPGAKGSYVLEVQKRLAKLGYEHAGFDGVYGPGTERAIMQLQRDKGLPVTGIVDMRTYEALGLF,-0.46
17,HMANSLLVTAQAGGQKLFNFLKRSLHAENNEIHRWIRTGQVRINKKRTKAFDIVHENDEIRIPPFALNR,-0.284
18,HMWDEMKDQKLVEALLLLREDERKLIYQHVFEERTFDDISRINGLPPYKVKGIYYYAIRKIRKWMG,-1.51
19,HMQIDRLFDIVYTLLRKKSATAAELAERFGVSKRTILRDIETLSVAGIPILTSPGKGGGVSISSSF,-0.881
20,HMGRRRAAPQEPLRQFPASPVTGQPIKLLLGQYGPYVTDGTTNASLPKGSSPDELTFEQATQLLAERALRG,0.109
21,HMGVRPAALGFQKVRIEPQVGTFREASGDVITPRGLIHAEWKRDEENALHLHYTLPDGVAYA,-0.0327
22,HMLYITEIQKKIMDAFLVVANESNSGTRITMNEIANKVRMTPQAIYRKHFKSVIEISDTIRD,-0.531
23,HMELLTYREMDVLNLLDQRLTNKEIAHALGISTETVRQHTVNLFRKLNVDNRRQAIVVARSLGYIGTPT,-1.2
24,HMNIVVSSIDSNSFEIVNKETGEQAVISYDKETKKGFVLINGVKKEFFQDGNKVYYDGYVIAE,0.227
25,HMKMTIEDLITQAKESNAAENYYEAFQLYSKAIDVLPNDPDLYSARGVVLFHLDRKEDSLIDMNKSVD,-0.2

row,Sequence,soluble fraction (log2)
1,HMETKERDEQFLEMIRQNEGIIFKVASFYVDKEHPIGDLYQEVVLNLWKGYPSFRGESKYSTWIYRIALNT,-0.0833
2,HMTEEEEFEKGFEILVNLSHFNRFSVYKEDEYVIVRIADYDFNEYFKVKKSDVGRIAEFLNENIT,-2.4
3,HMVVLPGEVVALKIIQTGSSKDQGVGYLEDGTMVVVDGAKNSIGKTIEIQISRSHQTVAGRMLFGIAMS,-1.24
4,HMLANLNKELQNDAALLKQKAQGNSNLLAKIQDVEQQMKQVNTSSASDEAKAKELQTLQRKLTAYKKALA,0.0101
5,HMLPEGIENGDVLTRTDALDYRKWLVTGNQKRIFASTASFYGENFNYSEVKAVSDRVLDAIPDGEPV,-0.0574
6,HMQRSVEDVFVQLRNGMDTYDMTQIEDALRILHGMELSTAQRDLLDKVQEAYNDLEYETGAALLAGFERIK,0.0317
7,HMSKPTLTLKSNAYPYNLNGERINNYLGFTYIKKGATLNYQGSKRINGQNYYYIGDGAYIKNTTVGSTNN,-1.51
8,HMSAETRSWTDAQGNQTQAVLRGFDGGDVLLQNAAGKTLRVPVKNLSEDDQRYVVLNISTLID,0.0786
9,HMQSTVSTHQKTLALDTAQSGIPVFPVSSTHKRPLTDHGYKDATADADAVRKIWQQFPSAFV,0.0922
10,HMTPGPYETLKPAPLGSYIEPKIGFATAIEIARKEAVQLGIKTEAGGIWYGGDFPFYNVSFFDPDD,-0.615
11,HMNPNPFVNLSPRELEVLNLLFKGYGVLEISNELNIGQTTASTFKSRILKKTSTHSVVELIKLAEQYGFIP,-0.508
12,HMGEQETILKGDVNRDGVVDVNDVTHLQIHISNDDKNPLIDVTNKAWFDAADMYGDGKLDILDATALQIYI,0.11
13,HMDPEIADAVNTIKKYLESHYSEVITRKKIEELVHLNQDHINREFKKQTGYTLMEYVQHYRILMAKKMLRV,-0.243
14,HMGVISRVITFWQNGFTVDDGPLRAFDDPANMAFMESIGRGEAPAELAPKTRTQRVNINLVQRHEPYSAPK,-0.0726
15,HMEAGTVTVTHAAVYIRSGPGVSYPIAGKAAKNDTYTVLQKDGDWFQIRLPQGNTGWIAGWLVETGT,-0.635
16,HMRMQRYYLTDMSEKGREALPGVLDEMGYAGRYTMSDNSIAINSNMIVLSKAIKRAEDIAHNE,-0.086
17,HMGTRHPLPYAYARANTVLLEDDGDRLVLWAPENVSLTALGEVLRRFDVDALERESSSTLANRIAVAYAG,-0.751
18,HMTNADRYIGQEATVTEKISNELSTGAVRIGGLVWTARTVDNSEAEEGERVTVEAIEGAKLLVKRR,-0.0108
19,HMVPQAVQDIKAYLASGALPYIGPATAKKIVAMFGSDALDVIAEHPEQLTAIRGLNEEKANAIHQEFRRQF,-0.0649
20,HMLMTGSLQTKHGKYYVVVRIPDGLGNTKAKWINTGIPTDGNNKRKAQQRRIEILTELEENKD,-1.84
21,HMDLQAAWLQTVRHLLAHTEDVGDRFAEEARRIHYGEEPHRGIRGQATPEERLALREEGIETMSIPV,-0.631
22,HMANAGKFDSDMGEKINFPGNRVSLTPSELEAARELAAIMGDRFFSQLIPTTSKVTVTEMLQSLK,0.3
23,HMLKHSKQRDAIEQFLATRYDHPTAETVYMNLREEYPKLSLATVYRNLSLLAELGNIQKIPTGNGPDRFDG,-0.555
24,HMNDPNAPITENQLKAIHVLLDKLKVDDNLKHAYIADVLQLDNEPETLKTLTKAQGSMAIERMQLLKDN,0.328
25,HMQEHAHLWRLMEDNRSFKADYIAFENGIVLLQNLSSGKISQYPITDFSIEDQLLILKRHELTAHINAN,-3.09

row,Sequence,soluble fraction (log2)
1,HMGKGVDKIMKMADDYSYGKIAGKTVDVMTAKLFQAAYNKAPQKAKDKVDKMNEKQLYIFMMNLWKRF,-0.777
2,HMPSPFYIMDEVEAALDDTNLGRLITLFEELRDSSQLIVITHQKKTMEIADALYGVTMRGDGITTVVSQRL,-0.343
3,HMGGHLAYGFSRRFGLLIDEQQGEPVIIARPDYSPVHYAEARRIVGQPAALRVVDEQAFNQLLQSQQESGA,-0.346
4,HMKSIETVAELVAELKKLNPNAKISNIDGTYTLEEDINTITLPKDFKYDNNLGINNKIDDFTPYISLDVKA,0.41
5,HMAEELELFHRLISVTGVGPKGALGFLSQLKPQEIILAILSDDVKTLSKAPGVGRKTAQRVILELKDKF,-1.14
6,HMIVDYPSFVGKTKQELEKWAKENNIIIRYRQLSVTASDKVKAQLPATTTYKRIMKGSSIEVELEL,-0.776
7,HMAEPEALLAMAQRILGEEVAQSLFQGAAREQGKEGYLPDPTPAFLDALEARLSGSVGAATAHAMISQLVG,-0.0483
8,HMKPTVKKLLAALPELRSGQPLHLSVATRKLRDAGLLGKNASSPTLFRNYVAQFELIPENQPNAVRYR,-0.551
9,HMANGTVKWFNTTKGFGFIAPETGGKDVFVHISAVERSGLTGLADDQKVTFDVEAGRDGRESAVNLAL,0.0396
10,HMQDKIWVVDETQLYPKLIEAMSEGKAVIHDGVAYWAEGSGKTGVIQHLPFKETTVQNVEEAIKLAQ,0.169
11,HMIDSVFASYRQVALDDELWDKVRNGAVLPKVELFEVMDGPVLFTYQSKIVAMYEPHPTKAGYIKPRKMFL,-1.18
12,HMTKKFQIQTLDKLNVRKVADWNASAVTTVKKGQILDVVAEVSPKNGSTKMYKLESGLYITASEKYVKKQG,0.0509
13,HMAPRDKADKYVAAGIAEELVPILQKVGYYLVTDLKDVKAQKIQQQIGEIIKKYKLDIEKPSVQDIEGWN,0.0612
14,HMGISEKVINIIETYTMIARKKYPSVKSLAEHFNVSERTVHRYLEIIKMIDVVDYDREKKGYFFPYGDR,-1.11
15,HMFQRLPFSFANRYKMVLEYQHPERPPVLYYVEPLKAAAILEVSRVIKSGFTPQAIVSDEFEKKLTEAYQR,-1.1
16,HMIDTTKILPGQEFKNMQELSVALTGQKMPAGKGYVLQQEKFKLYFSWKKITGTHKLIIDEIYEEPKT,-3.44
17,HMQTLGADLRALRKARGLTLTDMAETLGRSVGWLSQVERDLSEPSITDLRHMARTLGVSVSMLFS,-1.41
18,HMIDYIKYTVDGKTYELINNWDGTWSRELEAPLVAGRYDLLLEISQNGLVTYIDSSDPRYEFYLDVI,-3.12
19,HMRMRPNERQKRIIELLSFRRHETIGNFANEFGVSRDTIKRDIITLQEEYPIISERGYEGGISLPDGYYI,-0.263
20,HMPSYYKELQNYSPENPVVKKRKVHPDVVNAIKYLAEITDGNPMLIKAYAQMILAHVFTTMPLIDKSV,-0.128
21,HMQEPIAVPDFINKSAVDVLVNPVFTQNFKLVSEDVYDDKVPEGYIVGQSVKSDTLVQPGTEIVIYV,0.175
22,HMASPRVWKDASSGRTLTGEFVELTKDAVKVRRANGDVVSLPLSRLTEEDITFAKGASETGGA,0.146
23,HMLTTMSSQWKPSLDAIEILEKSGIAYSFIEDAIPEFVLYWRERGISHGAWNTKFVEHIRKQWAKFEAS,-1.35
24,HMSHISLGQRYKIEGYLQINLKRTQIAKEIGLPKKTVNQEIKRNSNPQTGIYKAEEAHQLYLDRMQKKRK,-0.131
25,HMSEEELETSGLVKRSAKGNLYDIFRHRVMVPIIDVRGAIIAFGGRVLDDSKPKYINSPETMVY,0.0208
